Assay [1] has as its target T1, DC-SIGN (DC-specific intercellular adhesion molecule 3-grabbing nonintegrin) (UniProt Q9NNX6 62-404, limits assumed).
T1 sequence (looked up): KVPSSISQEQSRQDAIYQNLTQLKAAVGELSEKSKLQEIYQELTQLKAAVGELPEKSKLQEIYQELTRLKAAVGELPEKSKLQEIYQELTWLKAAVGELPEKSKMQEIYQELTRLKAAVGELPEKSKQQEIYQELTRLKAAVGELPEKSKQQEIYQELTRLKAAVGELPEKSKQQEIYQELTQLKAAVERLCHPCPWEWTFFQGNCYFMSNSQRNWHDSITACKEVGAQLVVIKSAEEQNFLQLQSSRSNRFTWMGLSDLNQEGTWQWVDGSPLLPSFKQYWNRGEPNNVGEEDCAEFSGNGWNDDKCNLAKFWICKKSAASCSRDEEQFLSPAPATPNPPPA
Nature of the assay: SPR, DC-SIGN immobilised on CM5 chip, equilibrium fit Req=Rmax/(1+(Kd/C)).

Assay [2] has as its target T2, Plasmodium falciparum MSP1-19 (C-terminal fragment of merozoite surface protein 1) (Plasmodium falciparum, UniProt Q8I0U8 1607-1699).
T2 construct: domain: MSP1-19; also called Pf MSP1-19; PfMSP1-19
T2 sequence: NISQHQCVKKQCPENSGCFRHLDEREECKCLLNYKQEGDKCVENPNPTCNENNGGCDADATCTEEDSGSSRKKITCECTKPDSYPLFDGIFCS
Nature of the assay: SPR, MSP1-19 immobilised on CM5 chip.

In the next assay the target is T3, CD4 (UniProt P01730 26-396).
T3 construct: Bought protein; also called CD4 (Protein Sciences Corp.)
Nature of the assay: SPR, CD4 immobilised on CM5 chip, equilibrium fit Req=Rmax/(1+(Kd/C)).

Where no end group is shown, it is not given here.

B1: GST-Azu 88-113 (GST fused to azurin amino acids 88 to 113) (other)
chain: {GST}-GSGEKDSVTFDVSKLKEGEQYMFFCT
modifications: also: GST fusion, vector linker residues not given here
notes: not shown: glutathione S-transferase from the commercial vector pGEX-5X
Consider B1, for which the Kd in assay [1] was 5.98 nM.

B2: GST-Azu 36-128 (GST fused to azurin amino acids 36 to 128) (other)
chain: PGNLPKNVMGHNWVLSTAADMQGVVTDGMASGLDKDYLKPDDSRVIAHTKLIGSGEKDSVTFDVSKLKEGEQYMFFCTFPGHSALMKGTLTLK
notes: The azurin fragment was cloned into the BamHI/EcoRI sites of pGEX-5X; not shown: glutathione S-transferase from the commercial vector pGEX-5X
As to B2, the Kd in assay [2] amounted to 24.5 nM; in the assay with CD4, 0.34 nM.

B3: GST-Azu 36-89 (GST fused to azurin amino acids 36 to 89) (other)
chain: {GST}-PGNLPKNVMGHNWVLSTAADMQGVVTDGMASGLDKDYLKPDDSRVIAHTKLIGS
modifications: also: GST fusion, vector linker residues not given here
notes: also called pGST-azu 36-89 product; not shown: glutathione S-transferase from the commercial vector pGEX-5X
B3 displayed a Kd in assay [2] of 20.9 nM.

The values are drawn from patent US20090208476A1 (published 2009).
